In patent US20210130436A1 (published 2021):
Numbering of substitutions follows the chain as printed. Numbers in names are those of the source. One block for each binder: values may come before it.

How the values were obtained:
human CD28 = target: T1, human CD28 (human, UniProt P10747 19-220); test: flow cytometry, Jurkat/IL2 reporter cells (endogenous CD28), 33.3 nM, PE anti-human Fc
T1 construct: whole, on cells; Endogenous CD28 of Jurkat/IL2 reporter cells

[1] = target: T2, human CD28, endogenously expressed on Jurkat/IL2 reporter cells (human, UniProt P10747 19-220); test: flow cytometry, Jurkat/IL2 reporter cells (endogenous CD28), 33.3 nM Fc fusion, PE anti-human Fc
T2 construct: This is the endogenous CD28 of Jurkat cells

human PD-L1 = target: T3, human PD-L1 (human, UniProt Q9NZQ7 19-290); test: flow cytometry on CHO cells stably expressing PD-L1
T3 construct: also called huPD-L1; CD274
T3 sequence (Q9NZQ7 19-290): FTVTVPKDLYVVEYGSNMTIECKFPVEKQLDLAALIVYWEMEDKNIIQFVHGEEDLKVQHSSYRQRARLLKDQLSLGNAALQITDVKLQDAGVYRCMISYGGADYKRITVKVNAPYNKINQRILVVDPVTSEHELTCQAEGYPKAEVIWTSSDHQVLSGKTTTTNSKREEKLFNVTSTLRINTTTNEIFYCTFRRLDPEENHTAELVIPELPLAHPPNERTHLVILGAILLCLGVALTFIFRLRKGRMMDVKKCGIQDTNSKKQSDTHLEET

[2] = target: T4, human CTLA-4 (CTLA4), full-length, expressed on the surface of CHO cells (human, UniProt P16410 36-223); test: flow cytometry, CHO cells stably expressing human CTLA-4, 33.3 nM Fc fusion, PE anti-human Fc
T4 construct: also called huCTLA4
T4 sequence (P16410 36-223): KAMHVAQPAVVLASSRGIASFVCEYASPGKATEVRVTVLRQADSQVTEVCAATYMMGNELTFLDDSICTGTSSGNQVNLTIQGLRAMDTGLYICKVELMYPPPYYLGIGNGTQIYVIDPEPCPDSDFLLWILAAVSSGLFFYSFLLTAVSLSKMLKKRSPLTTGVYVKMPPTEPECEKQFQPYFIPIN

[3] = target: T5, human PD-L1 (CD274), full-length, expressed on the surface of CHO cells (human, UniProt Q9NZQ7 19-290); test: flow cytometry on PD-L1 CHO cells; MFI against WT CD80 ECD-Fc (R&D)
T5 construct: also called huPD-L1; B7-H1
T5 sequence (Q9NZQ7 19-290): as the sequence (Q9NZQ7 19-290) above

[4] = target: T4, human CTLA-4 (CTLA4), full-length, …; test: flow cytometry on CTLA-4 CHO cells; MFI against WT CD80 ECD-Fc (R&D)
[5] = target: T5, human PD-L1 (CD274), full-length, …; test: flow cytometry; MFI on PD-L1 CHO cells over MFI on Jurkat cells (CD28)
[6] = target: T2, human CD28, endogenously expressed on …; test: flow cytometry on Jurkat cells (CD28); MFI against WT CD80 ECD-Fc (R&D)
[7] = target: T5, human PD-L1 (CD274), full-length, …; test: flow cytometry, CHO cells stably expressing human PD-L1, 33.3 nM Fc fusion, PE anti-human Fc
[8] = target: T6, human CTLA4 (huCTLA4), full-length, stably expressed on CHO cells (human, UniProt P16410 36-223); test: flow cytometry, CHO cells expressing huCTLA4
T6 construct: whole, on cells
T6 sequence (P16410 36-223): as the sequence (P16410 36-223) above

[9] = target: T7, human PD-L1 (huPD-L1), full-length, stably expressed on CHO cells (human, UniProt Q9NZQ7 19-290); test: flow cytometry, CHO cells expressing huPD-L1
T7 construct: whole, on cells
T7 sequence (Q9NZQ7 19-290): as the sequence (Q9NZQ7 19-290) above

[10] = target: T7, human PD-L1 (huPD-L1), full-length, …; test: flow cytometry; MFI on PD-L1 CHO cells over MFI on Jurkat cells (CD28)
[11] = target: T6, human CTLA4 (huCTLA4), full-length, …; test: flow cytometry, CHO cells expressing huCTLA4; MFI against WT CD80 of the table
[12] = target: T7, human PD-L1 (huPD-L1), full-length, …; test: flow cytometry, CHO cells expressing huPD-L1; MFI against WT CD80 of the table

B1: WT CD80 ECD-Fc (Fc fusion, not shown: a dimerising Fc or GST)
chain: VIHVTKEVKEVATLSCGHNVSVEELAQTRIYWQKEKKMVLTMMSGDMNIWPEYKNRTIFDITNNLSIVILALRPSDEGTYECVVLKYEKDAFKREHLAEVTLSVKADFPTPSISDFEIPTSNIRRIICSTSGGFPEPHLSWLENGEELNAINTTVSQDPETELYAVSSKLDFNMTTNHSFMCLIKYGHLRVNQTFNWNTTKQEHFPDN
notes: The label 'H22.6' is not explained; also called WT CD80 ECD-Fc H22.6
MFI at 33.3 nM (human CD28): 30 MFI

B3: CD80 E35D/M47V/N48K/V68M/K89N IgV-Fc, GS(G4S)5 linker (Fc fusion, not shown: a dimerising Fc or GST)
chain: VIHVTKEVKEVATLSCGHNVSVEELAQTRIYWQKDKKMVLTMMSGDVKIWPEYKNRTIFDITNNLSIMILALRPSDEGTYECVVLKYENDAFKREHLAEVTLSVKADGSGGGGSGGGGSGGGGSGGGGSGGGGS
MFI at 33.3 nM (human PD-L1): 22700 MFI

B4: A26E/Q27R/E35D/M47L/N48Y/L85Q CD80 IgV-Fc (Fc fusion, not shown: a dimerising Fc or GST)
chain: VIHVTKEVKEVATLSCGHNVSVEELERTRIYWQKDKKMVLTMMSGDLYIWPEYKNRTIFDITNNLSIVILALRPSDEGTYECVVQKYEKDAFKREHLAEVTLSVKAD
MFI at 33.3 nM (human CD28): 78 MFI

B5: variant CD80 IgV-Fc E35D/M47L/A71G/L97Q (Fc fusion, not shown: a dimerising Fc or GST)
chain: B4 chain with E26A, R27Q, Y48N, A71G, Q85L, L97Q
MFI at 33.3 nM [2]: 226000 MFI
MFI at 33.3 nM [1]: 300 MFI

B7: variant CD80 IgV-Fc E35D/D46E/M47L/V68M/T79M/L85M/L97Q (Fc fusion, not shown: small tags and cut ends; a dimerising Fc or GST)
chain: B4 chain with E26A, R27Q, D46E, Y48N, V68M, T79M, Q85M, L97Q
MFI at 33.3 nM [8]: 96 MFI
MFI at 33.3 nM [9]: 4620 MFI
Ratio of PDL1:CD28 [10]: 325 ratio
Fold change to WT CD80 [11]: 0.1 fold
Fold change to WT CD80 [12]: 89.7 fold

Results, then the binder that gave them:

MFI at 33.3 nM [1]: 7630 MFI
B2: wild-type CD80 ECD-Fc (R&D Systems) (Fc fusion)
chain: B1 chain
notes: This is a commercial protein; also called WT CD80 ECD-Fc (R&D); unmodified CD80-ECD-Fc fusion molecule; not shown: Bought protein (R&D Systems)

Fold change to WT [3]: 2.45 fold
Fold change to WT CD80 [4]: 1.71 fold
Ratio of PDL1:CD28 [5]: 52 ratio
Fold change to WT [6]: 0.05 fold
MFI at 33.3 nM [7]: 19500 MFI
MFI at 33.3 nM [2]: 305000 MFI
MFI at 33.3 nM [1]: 371 MFI
B6: variant CD80 IgV-Fc E35D/D46E/M47V/L97Q (Fc fusion, not shown: a dimerising Fc or GST)
chain: B4 chain with E26A, R27Q, D46E, L47V, Y48N, Q85L, L97Q

MFI at 33.3 nM [1]: 7540 MFI
B8: variant CD80 IgV-Fc E35D/D46V/M47I/A71G/F92V (Fc fusion, not shown: a dimerising Fc or GST)
chain: B4 chain with E26A, R27Q, D46V, L47I, Y48N, A71G, Q85L, F92V

MFI at 33.3 nM [8]: 178 MFI
MFI at 33.3 nM [9]: 16500 MFI
Ratio of PDL1:CD28 [10]: 1130 ratio
Fold change to WT CD80 [11]: 0.1 fold
Fold change to WT CD80 [12]: 320 fold
B9: variant CD80 IgV-Fc Q27L/Q33L/E35D/T41S/M47V/N48K/V68M/L85M (Fc fusion, not shown: small tags and cut ends; a dimerising Fc or GST)
chain: B4 chain with E26A, R27L, Q33L, T41S, L47V, Y48K, V68M, Q85M
